Experimental data as given in US5382658A, “Stability-enhanced variants of parathyroid hormone” (Allelix Biopharmaceuticals Inc., priority 1992, dated 1995).
Changes are numbered by the printed parent chain. Like-named read-outs stand apart in the source and are kept apart here.

B1: [His^25 ]hPTH (protein, UniProt P01270 32-115, looked up, variant R25H)
Parathyroid hormone: SVSEIQLMHNLGKHLNSMERVEWLHKKLQDVHNFVALGAPLAPRDAGSQRPRKKEDNVLVESHEKSLGEADKADVNVLTKAKSQ
B2: [His^25 His^26 Leu^27 ]hPTH (protein, UniProt P01270 32-115, looked up, variant R25H K26H K27L)
Parathyroid hormone: B1 Parathyroid hormone with K26H, K27L

Tests used:
ovariectomized rat = assay: Ovariectomized rat model of osteoporosis, total skeletal calcium scan; format: in vivo; conditions: subcutaneous, once daily for 28 days, human PTH 150 μg/kg, variant dosed at 25 and 150 μg/kg, dose of the reported result not stated
Description: The P2 variant was also evaluated in vivo for its effect on skeletal tissue, in an ovariectomized rat model of osteoporosis. Formulations of the P2 variants were first prepared by reconstituting the P2 variant from lyophilized powder in 0.1M acetic acid, then diluting to 10 mM acetic acid by addition of normal saline vehicle and 2% (v/v) heat-inactivated rat serum, to generate a stock solution containing the variant at a concentration of about 150 μg/ml. The P2 formulation was then injected subcutaneously at the neck region, in selected volumes representing dosage sizes of 25 μg/kg and 150 μg/kg (8 rats/each dose). A third group of rats received human PTH at a dose of 150 μg/kg and a fourth group received vehicle alone. Treatment regimen consisted of single dose administration once daily for 28 days.
After treatment, the rats were sacrificed and evaluated by total skeletal calcium scan. Relative to rats receiving vehicle alone, the whole body calcium scanning results indicated an improvement in rats receiving human PTH (5.8% increase), and a still further improvement (9.6% increase) in rats receiving the [His^25 His^26 Leu^27 ] variant. It is believed that enhanced effects of this variant result from its greater half-life in vivo i.e. its resistant to serum-borne trypsin and/or other enzymes which otherwise degrade and/or inactivate the native hormone.

trypsin [1] = tested on: trypsin
Description: (§1) The stability of PTH and variants to degradation by trypsin was also quantified by SDS polyacrylamide gel electrophoresis (SDS-PAGE). Incubations of PTH or variant with trypsin were established. For example, a sufficient aliquot of lyophilized PTH or variant was first solubilized for 20 minutes at room temperature with 10 mM acetic acid (final concentration of 1 mg/mL) and then diluted about 20-fold with Tris buffer. About 10 μg of PTH (or variant) was removed for a preincubation, "time zero" time point, and was lyophilized. The incubations were initiated by addition of an appropriate amount of freshly prepared trypsin solution in Tris buffer for a final trypsin to PTH (or variant) ratio of 1:500 (w/w). The samples were incubated at room temperature. Aliquots of the appropriate volume corresponding to an initial amount of undigested PTH (or variant) of 10 μg were removed at specific times (2, 5, 20, 60, 240 minutes). These were quenched immediately by adding an equal weight of SBTI to trypsin (either 2 μL of SBTI in Tris at a concentration of 10 μg/mL or 0.02 μg SBTI was added to the time point containing 0.02 μg trypsin and 10 μg initial equivalent amount of PTH or variant in Tris buffer). Samples quenched at the various time points were then lyophilized.
(§2) Lyophilized samples containing 10 μg of intact and/or fragmented PTH or variant were solubilized in gel sample buffer and subjected to electrophoresis using suitable conditions to separate intact PTH from the smaller fragments (16.5% acrylamide gel, BioRad Mini-Protean II apparatus, 90 minutes, 100 mV). The gels were fixed and stained for protein with Coomassie Blue. The amount of intact, full length PTH present in each of the various samples (preincubation sample and time point samples) was quantified using a gel scanning method, which measures the quantity of stain and therefore the amount of protein scanned in each band. Initially, a standard curve was constructed by loading various amounts of PTH in each lane (2,2, 4, 6, 8, 10 μg per lane), scanning each lane, and then constructing a standard curve of the quantity of stain at the mobility of PTH as a function of the amount of PTH loaded per lane. With the gel scanning system, the quantity of stain was proportional to the amount of PTH loaded in the range of 1 to 10 μg per lane. Using this standard curve, the amount of intact PTH present in each sample was calculated from the quantity of stain at the mobility of intact PTH.
(§3) The amount of PTH (or variant) in the preincubation sample was termed Po (scanned amount corresponding to approximately 10 μg intact PTH or variant) and the amount at a given time, t, was defined as Pt.

[2] = tested on: adenylate cyclase activity in UMR-106 rat osteosarcoma cells; assay: UMR-106 based adenylate cyclase assay (cAMP formation); format: cell-based; conditions: for EC50: UMR-106 cells, untreated samples, read-out: EC50, concentration effective for half-maximal stimulation of adenylate cyclase activity; for potency relative to hPTH (in words): UMR-106 adenylate cyclase assay
Text: In the present specification, PTH activity is defined in the context of the osteosarcoma-based adenylate cyclase assay employed conventionally in the art. Briefly, this assay provides an in vitro determination of the extent to which PTH stimulates adenylate cyclase activity in rat osteosarcoma cells of the `UMR` lineage, and thus provides an indication of PTH effects on bone tissue in vivo. Protocols for conducting the assay have been described by Rodan et al, 1983, J. Clin. Invest., 72:1511 (in which the osteosaracoma cells of the ROS lineage are employed) and by Rabbani et al, 1988, Endocrinol., 123:2709 (which employs the line UMR-106). […] The term EC50 refers to the concentration of PTH or variant effective for half-maximal stimulation of adenylate cyclase activity.
Thawed or fresh samples of human PTH(1-84) and of PTH variants obtained as described above were then evaluated for biological activity using a UMR-106 based adenylate cyclase assay and the protocol as described by Rabbini et al, 1988, Endocrinology, 123:2709, which is incorporated herein by reference. As noted, rat osteosarcoma cells of the UMR line are stimulated by PTH to produce adenylate cyclase, an enzyme which catalyzes intracellular conversion of ATP to its cylic monophosphate analogue, cAMP. In this assay therefore, PTH activity is determined by assaying radiometrically the formation of cAMP in PTH-stimulated UMR cells. The results of the assays, expressed in terms of EC50 (concentration of PTH or variant effective for half-maximal stimulation of adenylate cyclase activity), are presented in the table below: […]

[3] = Trypsin sensitivity: trypsin or mock incubation followed by UMR-106 adenylate cyclase assay; conditions: UMR-based adenylate cyclase assay after trypsin incubation under the exemplified conditions; read-out: EC50 following trypsin incubation
Description: PTH variants having an "improved stability in the presence of trypsin" are degraded by trypsin at a rate that is slower than a similarly treated native PTH control. An assay suitable for identifying a reduced tryptic digestion rate entails a two step procedure, in which a PTH variant and a native PTH control are separately incubated with trypsin for a defined period, and are then assayed for activity in the osteosarcoma-based assay just described. Protocols suitable for assaying trypsin sensitivity are described in the literature and are outlined in the examples herein.
To measure the sensitivity of a compound (native PTH or variants) to digestion with trypsin, duplicate incubations were established for each compound in either the presence of trypsin ("Trypsin Incubation") or the absence of trypsin ("Mock Incubation"). For example, a lyophilized aliquot of PTH (or variant) was solubilized for 20 minutes at room temperature in 10 mM acetic acid at a final concentration of 1 mg/mL (50 μg PTH or variant plus 50 μL 10 mM acetic acid). […] The appearance of the cleavage product was monitored as a function of time at 253 nm. […]
Parallel trypsin and mock incubations were established as follows. […] Dose-response curves were generated and the relevant EC50 values were calculated. […]

trypsin [4] = assay: Trypsin degradation time course quantified by SDS-PAGE gel scanning
Description: as §1, §2, §3

| Molecule | increase in whole body calcium relative to rats receiving vehicle alone (ovariectomized rat) [%] | Half-Life (from SDS-PAGE analysis) (trypsin [1]) [min] | EC50 [2] [nM] | EC50 [3] [nM] | potency relative to hPTH (in words) [2] | Half-Life (from SDS-PAGE analysis) (trypsin [4]; Trypsin:PTH = 1:500 (w/w), room temperature, time when Pt/Po = 0.5) [min] | initial material remaining (intact) (trypsin [4]; after 240 minutes, trypsin:PTH 1:500 (w/w)) | resistance to proteolysis by trypsin (in words) (trypsin [4]; trypsin to PTH ratio of 1:500 (w/w)) |
| --- | --- | --- | --- | --- | --- | --- | --- | --- |
| human PTH(1-84) [hPTH, reference compound] | 5.8 | 25 ± 5 | 1 | ~12 |  |  |  |  |
| B1 |  | 27 ± 7 | 2 |  | substantially equipotent |  |  |  |
| B2 | 9.6 |  | 1.7 |  | substantially equipotent | > 240 | more than 60% | almost completely resistant to proteolysis |
